Data from the supplement of paper PMC7877785.
± gives the uncertainty stated by the source.

Test: self-splicing fitness, log relative to wild type (ln ratio); higher = more splicing; Tetrahymena group I intron in knt gene, E. coli kanamycin selection, DiMSum; sequences stand for … in CUCUCU…GGAGGGAAAAGUUAUCAGGCAUGCACCUGGUAGCUAGUCUUUAAACCAAUAGAUUGCAUCGGUUUAAAAGGCAAGACCGUCAAAUUGCGGGAAAGGGGUCAACAGCCGUUCAGUACCAAGUCUCAGGGGAAACUUUGAGAUGGCCUUGCAAAGGGUAUGGUAAUAAGCUGACGGACAUGGUCCUAACCACGCAGCCAAGUCCUAAGUCAACAGAUCUUCUGUUGAUAUGGAUGCAGUUCACAGACUAAAUGUCGGUCGGGGAAGAUGUAUUCUUCUCAUAAGAUAUAGUCGGACCUCUCCUUAAUGGGAGCUAGCGGAUGAAGUGAUGCAACACUGGAGCCGCUGGGAACUAAUUUGUAUGCGAAAGUAUAUUGAUUAGUUUUGGAGUACUCGUGGUCG
Outline: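 A randomised library covering all eight P1ex-region intron nucleotides was built with the intron in the knt kanamycin-resistance gene on pET-22b(+) and held in E. coli BL21(DE3). Cells were grown overnight at 37°C or 30°C on LB agar, with or without 25 μg/mL kanamycin, plus 100 μg/mL carbenicillin, 50 μM IPTG and 0.2% rhamnose, and pooled colonies were amplicon-sequenced on an Illumina HiSeq 2500. DiMSum fitness is the error-weighted combination of wild-type-normalised replicate fold changes, kanamycin versus none.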

| Sequence | self-splicing fitness (ln) (30 °C) | self-splicing fitness (ln) (37 °C) |
| --- | --- | --- |
| UGCCAGCAAUAUUACGCUAU | -0.882 ± 0.16 | -1.13 ± 0.16 |
| UGCCAGCAAUAUUACGGACA | -0.325 ± 0.074 | -0.394 ± 0.09 |
| UGCCAGCAAUAUUACGGAUA | -1.27 ± 0.091 | -0.573 ± 0.1 |
| UGCCAGCAAUAUUACGGAUU | -1.67 ± 0.068 | -0.242 ± 0.074 |
| UGCCAGCAAUAUUACGGCGG | -3.73 ± 0.18 | -1.48 ± 0.13 |
| UGCCAGCAAUAUUACGGGAA | -1.37 ± 0.092 | -0.333 ± 0.1 |
| UGCCAGCAAUAUUACGGGUU | -2.46 ± 0.13 | -2.34 ± 0.12 |
| UGCCAGCAAUAUUACGGUGA | -0.97 ± 0.075 | 0.0352 ± 0.092 |
| UGCCAGCAAUAUUACGGUGG | -3.29 ± 0.13 | -2.97 ± 0.21 |
| UGCCAGCAAUAUUACGUAAA | -1.24 ± 0.093 | -0.956 ± 0.12 |
| UGCCAGCAAUAUUACGUAGU | -3.91 ± 0.21 | -1.87 ± 0.13 |
| UGCCAGCAAUAUUACGUAUA | -1.92 ± 0.11 | -1.62 ± 0.12 |
| UGCCAGCAAUAUUACGUCAC |  | -2.01 ± 0.29 |
| UGCCAGCAAUAUUACGUCAG | -2.49 ± 0.11 | -1.53 ± 0.14 |
| UGCCAGCAAUAUUACGUCGC | -3.68 ± 0.44 | -2.95 ± 0.35 |
| UGCCAGCAAUAUUACGUCUC | -4.62 ± 0.29 | -2.11 ± 0.25 |
| UGCGAGCAAUAUUACGAACU | -1.88 ± 0.11 | 0.0543 ± 0.09 |
| UGCGAGCAAUAUUACGAAGU | -3.37 ± 0.3 | -0.334 ± 0.29 |
| UGCGAGCAAUAUUACGACCG | -1.72 ± 0.17 | 0.112 ± 0.21 |
| UGCGAGCAAUAUUACGAGUC | -3.05 ± 0.21 | -2.27 ± 0.2 |
| UGCGAGCAAUAUUACGAUAA | -3.41 ± 0.23 | -2.01 ± 0.18 |
| UGCGAGCAAUAUUACGCAAA | -3.58 ± 0.28 | -2.04 ± 0.17 |
| UGCGAGCAAUAUUACGCCGG | -3.39 ± 0.34 |  |
| UGCGAGCAAUAUUACGCCGU | -3.36 ± 0.23 | -2.54 ± 0.3 |
| UGCGAGCAAUAUUACGCCUG | -3.98 ± 0.22 | -0.862 ± 0.13 |

| Sequence | self-splicing fitness (ln) (30 °C) | self-splicing fitness (ln) (37 °C) |
| --- | --- | --- |
| UGCGAGCAAUAUUACGCGCG | -2.71 ± 0.2 | -2.72 ± 0.3 |
| UGCGAGCAAUAUUACGCGCU | -3.43 ± 0.36 |  |
| UGCGAGCAAUAUUACGCGUG | -4.3 ± 0.42 | -1.12 ± 0.25 |
| UGCGAGCAAUAUUACGGAAC |  | -2.25 ± 0.39 |
| UGCGAGCAAUAUUACGGACG | -1.24 ± 0.15 | -1.19 ± 0.17 |
| UGCGAGCAAUAUUACGGCUC | -2.91 ± 0.31 | -3.21 ± 0.41 |
| UGCGAGCAAUAUUACGGGCA | -2.84 ± 0.21 | -1.31 ± 0.18 |
| UGCGAGCAAUAUUACGGGCG | -1.59 ± 0.061 | -0.628 ± 0.086 |
| UGCGAGCAAUAUUACGGUCG | -2.27 ± 0.25 | -2.39 ± 0.27 |
| UGCGAGCAAUAUUACGGUGC |  | -0.943 ± 0.2 |
| UGCGAGCAAUAUUACGGUGG | -3.04 ± 0.23 | -3.1 ± 0.33 |
| UGCGAGCAAUAUUACGUAAA | -2.8 ± 0.1 | -1.77 ± 0.18 |
| UGCGAGCAAUAUUACGUAGG | -3.81 ± 0.18 | -2.76 ± 0.21 |
| UGCGAGCAAUAUUACGUAGU |  | -1.9 ± 0.19 |
| UGCGAGCAAUAUUACGUAUA | -2.89 ± 0.25 | -0.733 ± 0.22 |
| UGCGAGCAAUAUUACGUCUU | -2.61 ± 0.16 | -2.04 ± 0.16 |
| UGCGAGCAAUAUUACGUUUA | -2.19 ± 0.16 | -2.99 ± 0.14 |
| UGCGAGCAAUAUUACGUUUC |  | -2.62 ± 0.36 |
| UGCGAGCAAUAUUACGUUUG | -3.45 ± 0.21 | -2.88 ± 0.21 |
| UGCUAGCAAUAUUACGAAUU | -4.43 ± 0.41 | -1.98 ± 0.17 |
| UGCUAGCAAUAUUACGAUCU | -0.537 ± 0.11 | -0.24 ± 0.1 |
| UGCUAGCAAUAUUACGCGCG | -0.603 ± 0.092 | -1.08 ± 0.12 |
| UGCUAGCAAUAUUACGCGCU | -1.96 ± 0.12 | -0.777 ± 0.13 |
| UGCUAGCAAUAUUACGCGGC | -3.02 ± 0.38 |  |
| UGCUAGCAAUAUUACGGAGU | -4.11 ± 0.3 | -2.34 ± 0.24 |

| Sequence | self-splicing fitness (ln) (30 °C) | self-splicing fitness (ln) (37 °C) |
| --- | --- | --- |
| UGCUAGCAAUAUUACGGGUC | -2.99 ± 0.16 | -2.62 ± 0.18 |
| UGCUAGCAAUAUUACGGUAG | -1.49 ± 0.098 | -0.852 ± 0.13 |
| UGCUAGCAAUAUUACGUCUG | -0.586 ± 0.088 | -0.323 ± 0.095 |
| UGCUAGCAAUAUUACGUGAG | -3.51 ± 0.18 | -1.78 ± 0.21 |
| UGCUAGCAAUAUUACGUGGC | -3.1 ± 0.32 | -2.6 ± 0.35 |
| UGCUAGCAAUAUUACGUGUU | -3.87 ± 0.16 | -2.21 ± 0.12 |
| UGCUAGCAAUAUUACGUUCG | -0.807 ± 0.065 | -0.115 ± 0.091 |
| UGCUAGCAAUAUUACGUUGU | -2.59 ± 0.17 | -3.8 ± 0.34 |
| UGGAAGCAAUAUUACGAAUU |  | -1.99 ± 0.36 |
| UGGAAGCAAUAUUACGACGG | -0.691 ± 0.065 | -0.14 ± 0.084 |
| UGGAAGCAAUAUUACGAGAU | -3.92 ± 0.26 | -2.47 ± 0.21 |
| UGGAAGCAAUAUUACGAGUG | -1.38 ± 0.09 | -0.586 ± 0.12 |
| UGGAAGCAAUAUUACGAUUG | -1.76 ± 0.12 | -0.362 ± 0.12 |
| UGGAAGCAAUAUUACGAUUU | -2.48 ± 0.087 | -1.7 ± 0.092 |
| UGGAAGCAAUAUUACGCGAA | -1.68 ± 0.16 | -1.03 ± 0.15 |
| UGGAAGCAAUAUUACGCGCG | 0.222 ± 0.15 | 0.698 ± 0.15 |
| UGGAAGCAAUAUUACGCGGA | -1.17 ± 0.2 | -1.88 ± 0.23 |
| UGGAAGCAAUAUUACGCUAU | -2.52 ± 0.18 | -2.72 ± 0.29 |
| UGGAAGCAAUAUUACGCUUG | -3.54 ± 0.26 | -2.53 ± 0.29 |
| UGGAAGCAAUAUUACGGACA | -1.03 ± 0.13 | -0.0422 ± 0.11 |
| UGGAAGCAAUAUUACGGAUC | -2.47 ± 0.34 | -1.54 ± 0.24 |
| UGGAAGCAAUAUUACGGCUU | -2.94 ± 0.32 | -1.73 ± 0.45 |
| UGGAAGCAAUAUUACGGGCU | -3.13 ± 0.27 | -1.32 ± 0.2 |
| UGGAAGCAAUAUUACGGUUA | -1.04 ± 0.11 | -0.0733 ± 0.099 |
| UGGAAGCAAUAUUACGUCAA | -1.53 ± 0.12 | -0.758 ± 0.13 |

| Sequence | self-splicing fitness (ln) (30 °C) | self-splicing fitness (ln) (37 °C) |
| --- | --- | --- |
| UGGAAGCAAUAUUACGUCAG | -0.777 ± 0.12 | -0.119 ± 0.16 |
| UGGAAGCAAUAUUACGUCAU | -2.99 ± 0.35 | -3.01 ± 0.3 |
| UGGAAGCAAUAUUACGUGAA | -1.33 ± 0.096 | -1.65 ± 0.12 |
| UGGCAGCAAUAUUACGAAAG | -2.17 ± 0.14 | -1.19 ± 0.13 |
| UGGCAGCAAUAUUACGACCC | 0.0617 ± 0.19 | -0.655 ± 0.18 |
| UGGCAGCAAUAUUACGACUU | 0.0485 ± 0.093 | 0.468 ± 0.1 |
| UGGCAGCAAUAUUACGAUGA | -0.639 ± 0.12 | -0.971 ± 0.14 |
| UGGCAGCAAUAUUACGAUGC | -3.93 ± 0.28 | -2.65 ± 0.41 |
| UGGCAGCAAUAUUACGCAAG | -3.83 ± 0.18 | -2.44 ± 0.18 |
| UGGCAGCAAUAUUACGCCCA | -1.66 ± 0.15 | 0.585 ± 0.24 |
| UGGCAGCAAUAUUACGCCUA | -0.238 ± 0.21 | 0.697 ± 0.42 |
| UGGCAGCAAUAUUACGCGAU | -2.67 ± 0.18 | -2.01 ± 0.21 |
| UGGCAGCAAUAUUACGCGGC | -4.17 ± 0.29 | -2.23 ± 0.26 |
| UGGCAGCAAUAUUACGCGUC | -3.54 ± 0.37 | -2.21 ± 0.3 |
| UGGCAGCAAUAUUACGCGUG | -1.25 ± 0.14 | -0.356 ± 0.14 |
| UGGCAGCAAUAUUACGCUCA | -0.353 ± 0.13 | 0.629 ± 0.18 |
| UGGCAGCAAUAUUACGGACC | -2.02 ± 0.33 | -0.716 ± 0.24 |
| UGGCAGCAAUAUUACGGAUU | -3.95 ± 0.24 | -1.88 ± 0.2 |
| UGGCAGCAAUAUUACGGCCG | -3.49 ± 0.16 | -1.77 ± 0.16 |
| UGGCAGCAAUAUUACGGCGA | 0.0623 ± 0.12 | 0.97 ± 0.13 |
| UGGCAGCAAUAUUACGGCUC | -0.609 ± 0.082 | -0.683 ± 0.11 |
| UGGCAGCAAUAUUACGUAUU | -2.73 ± 0.12 | -1.27 ± 0.11 |
| UGGCAGCAAUAUUACGUCCA | -1.23 ± 0.12 | -0.471 ± 0.16 |
